Test results from patent publication US20100047230A1 (HELLENIC PASTEUR INSTITUTE, published 2010).

Tests used:
Assay in all cases: ELISA on coated antigen
bovine serum albumin = target: T1, bovine serum albumin (bovine, UniProt P02769 25-607)
T1 construct: Irrelevant antigen control; also called BSA

alpha1-ECD of human AChR = target: T2, alpha1-ECD of human AChR (human, UniProt P02708 21-230, limits assumed)
T2 construct: extracellular domain; Irrelevant antigen control; also called α1-ECD; α1-AChR
T2 sequence (P02708 21-230 limits assumed): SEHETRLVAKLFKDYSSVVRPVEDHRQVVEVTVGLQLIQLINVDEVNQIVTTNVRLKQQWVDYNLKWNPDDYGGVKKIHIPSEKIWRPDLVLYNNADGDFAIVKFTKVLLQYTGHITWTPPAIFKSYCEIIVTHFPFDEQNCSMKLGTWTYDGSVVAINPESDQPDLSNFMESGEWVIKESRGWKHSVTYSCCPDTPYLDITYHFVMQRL

human serum albumin = target: T3, human serum albumin (human, UniProt P02768 25-609)
T3 construct: Irrelevant antigen control, produced in P. pastoris; also called HSA

T1 sequence (P02769 25-607 limits assumed): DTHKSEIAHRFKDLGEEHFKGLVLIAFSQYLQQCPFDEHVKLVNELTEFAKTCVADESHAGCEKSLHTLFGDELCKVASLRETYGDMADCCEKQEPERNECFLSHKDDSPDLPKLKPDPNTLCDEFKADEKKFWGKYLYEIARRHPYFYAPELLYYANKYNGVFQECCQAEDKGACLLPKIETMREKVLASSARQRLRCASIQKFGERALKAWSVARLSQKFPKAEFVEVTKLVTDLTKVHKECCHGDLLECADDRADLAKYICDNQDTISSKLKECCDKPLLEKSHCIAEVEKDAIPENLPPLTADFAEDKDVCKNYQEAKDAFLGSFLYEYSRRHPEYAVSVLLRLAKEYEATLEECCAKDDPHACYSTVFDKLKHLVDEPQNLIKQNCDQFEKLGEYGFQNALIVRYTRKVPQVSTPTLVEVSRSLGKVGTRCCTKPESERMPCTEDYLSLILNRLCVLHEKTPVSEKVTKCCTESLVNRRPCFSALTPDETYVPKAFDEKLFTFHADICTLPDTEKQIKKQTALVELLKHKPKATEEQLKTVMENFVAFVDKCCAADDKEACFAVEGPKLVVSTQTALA

B1: Fab63 (Fab, V domains shown)
VH: EVQLLEWGPGLVKPSGTLSLTCAVSGGSIRDSNWWGWVRQPPGKGLEWIGEIYHSGTTNYNPSLKSRVTISVDKSKNQFSLNLSSVTAADTAVYYCAREDCSYGSCYFDYWGQGTLVTVSS
VL: ELTLTQSPSSLSASLGDRVTIRCRASQSISAALNWYQQKPGKAPKLLIHDVSTLQSGVPARFSGGGSETDFTLTISSLQPEDFATYYCQQSYRVPLTFGGGTRLEIK
notes: Fully human soluble Fab made in E. coli from pComb3H; Heavy chain is an Fd of the gamma1 isotype (VH-CH1), light chain is kappa (VL of the K subgroup, with Ckappa); also called human Fab 63; clone 63
binding result (bovine serum albumin): no binding (tested: antigen coated at 10 µg/ml)
binding result (alpha1-ECD of human AChR): no binding (tested: antigen coated at 10 µg/ml)
binding result (human serum albumin): no binding (tested: antigen coated at 10 µg/ml)
